Test: soluble on expression in E. coli; label from the status in PepcDB or PDB records

Soluble on expression in E. coli, soluble:
MKRVAAVIEYDGSNFFGYQGQPDVRTVQGVIEDALERIFKQRIYTQAAGRTDTGVHANGQLIAFNCPNDRMTTEDIRNAMNANLPDDVYVKEVFEVPVNFHPRFDVTKRIYHYFILTSRQKNVFLRKYVWWFPYELDLDAMRKAVKYLEGTHDFTSFKTGSDERDPVRTIYRIRILRLKNDLVLIRVEGRSFLRRMVRNIVAALVKVGLKQWEPEKMKEVLEARDRSAAAGTAPAHGLYFYKVLF
MKNENENEICFIAGVGDSNGYGWGIAKELSKRNVKVIFGVWPPVYNIFIKNLESGKFDKDMIINNDNSKRMQILDVLPLDAGFDNYDDIDEDTKNNKRYNNLKNYSIEEVANLIYNKYGKISMLVHSLANGREVQKSLLDTSRDGYLDAISKSSYSLISLCKHFCKFMNSGGSVVSLTYQASQKVVPGYGGGMSSAKAALESDTRVLAYYLGRKYNIRINTISAGPLKSRAATAINKFNNNQKNNMNSSGETDKQNYSFIDYAIDYSEKYAPLKKKLLSTDVGSVASFLLSKESSAVTGQTIYVDNGLNIMFGPDDLFQSSDS
MASPPPFHSQKLPGEYFRYKGVPFPVGLYSLESISLAENTQDVRDDDIFIITYPKSGTTWMIEIICLILKEGDPSWIRSVPIWERAPWCETIVGAFSLPDQYSPRLMSSHLPIQIFTKAFFSSKAKVIYMGRNPRDVVVSLYHYSKIAGQLKDPGTPDQFLRDFLKGEVQFGSWFDHIKGWLRMKGKDNFLFITYEELQQDLQGSVERICGFLGRPLGKEALGSVVAHSTFSAMKANTMSNYTLLPPSLLDHRRGAFLRKGVCGDWKNHFTVAQSEAFDRAYRKQMRGMPTFPWDEDPEEDGSPDPEPSPEPEPKPSLEPNTSLEREPRPNSSPSPSPGQASETPHPRPS
MGSSHHHHHHSSGLVPRGSHMQKPIKKDPNRYHGEKMTEFSEWFHNILEEAEIIDQRYPVKGMHVWMPHGFMIRKNTLKILRRILDRDHEEVLFPLLVPEDELAKEAIHVKGFEDEVYWVTHGGLSKLQRKLALRPTSETVMYPMFALWVRSHTDLPMRFYQVVNTFRYETKHTRPLIRVREITTFKEAHTIHATASEAEEQVERAVEIYKEFFNSLGIPYLITRRPPWDKFPGSEYTVAFDTLMPDGKTLQIGTVHNLGQTFARTFEIKFETPEGDHEYVHQTCYGLSDRVIASVIAIHGDESGLCLPPDVAAHQVVIVPIIFKKAAEEVMEACRELRSRLEAAGFRVHLDDRDIRAGRKYYEWEMRGVPLRVEIGPRDLEKGAAVISRRDTGEKVTADLQGIEETLRELMKDILENLRTRAWERMESEIREAETLEEASRIVDEKRGIISFMWCGEEECGMDVEEKVRVDILGIQEEGSGTCINCGREAPYRAYLARTY
SNAVYGSEVESKIIEFTIVGADEIIAEKLGISVGDFVYKIIRLRIIHSIPTIMEHTWMPIAVIPGVEASVLEESIYSYIQNKLGLKVGTSVVRVKGIRPDDKEKQFMNLTNQDFLMRVEQVAYLTDGRTFEYSYADHLPETFEFETVITAKSYKEA
AECSVDIQGNDQMQFNTNAITVDKSCKQFTVNLSHPGNLPKNVMGHNWVLSTAADMQGVVTDGMASGLDKDYLKPDDSRVIAHTKLIGSGEKDSVTFDVSKLKEGEQYMFFCSELCGINHALMKGTLTLK

Soluble on expression in E. coli, not soluble:
MSSSGPTRSISTGTKPPTESLYKREVAQMMQQHQQQQRINNNKGYRPQGASPPKELKRRFYDDGSVTPSSRQSRNERSMDGRPSPEHGAIIGENRKSSPPAEEKYSNSGTRCKLPIPDMFRFYDKEMANEKLESLGLADEDDKKTLTKMRRHSIWMDNQLLNQLQASESNKQYLSAKKQMRDILITRIDHIDNAHKNVNSLFVHDFVHDYIILFKNKVSKSEKFLLCLKKINN
MIACICAITVMAQVQTHDVKGVVFDRRQQPIVGALVTAKGTNISTITDVDGKFLLQEVPLSVKKVVVTSIGMETREVDLNVPVQLTGKRKKVSFVAHAGLSMSKYTIYGSDFKVGYEFGLGIEVRMSKRWAFQPTLQICNHGAEFNAERYGVKYQETWNPVSLDLPMLFILRCPIARKMNLAFSMGPVFSYGFAGKVKASETGKPDEEYDIYSSEYEYDYSGGKHSLLHPFSFGVAYGIGVEYKKWLAGISGKSMCLGQDDEGFEAKEHNLVLTLGVIYRF
MGSDKIHHHHHHMSIKTFELISTTENGIQLISYVALPEAASDDNPVAGILVAPEWWGVVEHPKNVTERLAKAGYAAVAMDVYGEGKLTSDAAQANMWMEQVLADQDMLMARCRLILNDFSDQLAVDSDNLGAIGYCFGGKIVLDMAREGMPLKAVATFHGNPSPKQPADKQFSAKVLVAHGRDDSMVSMDAIEGLKAELDGADIDYTIDVYDGAKHGFTNPNADERAAKNGVDLGYNETAAKQSWDNMLEFMKDNLA
MSSGYSSLEEDEDFFFTARTSFFRRAPPGKSRSGQPDVEKEKETHNYLSKEEIKEKVHKYNSAVTDKLKMTLNSNGIYTGFIKVQMELCKPAQPSPEPSSGGCMNTLHISSTNTVGEVIEALLRKFLVTESPTKFALYKRCHREDQVYACKLSDREHPLYLRLVAGPRTDTLSFVLREHEIGEWEAFSLPELQNFLRILDKEEDEQLQSLKRRYTAYRQKLEEALGEVWKPG
MGSDKIHHHHHHMGKVNYAAIDIGSNAVRLLIKSIDREAVQEKKIKKVMMLRVPLRLGFDVFSIGELSEKKADKLRRLMKAFRQLMKIYDVDDYRACATSAMRDARNGRTIIKKIEKDTGIRIEIIDGQEEARMIYNNHIECMEDRLGNYMYVDVGGGSTEINLLTNGELVWSVSYNIGTVRMLSNAVKEGTWQQMEEELMKVTEGVAAINIIGSGGNINKLFRLADKKDKKLQRLPVSSLQTVYDVLKPLTPEERVEAFSLKQDRADVIVPAAEIFLKIAEVVHAEYIYVPVIGLSDGIIDNLYAKSLEKEMKVE
MGSDKIHHHHHHMNTIHSCVLQIHLTIETKMADTKAIQQLDLNLLKIFEALYSEQNMTLASKSLFITPSAVSHAIKRLRLVLNDPLFVRQGLQMQPTAACQRMAPQLISALNRIRQVLQQCGEFDPLTTEQTFKIAIHEALESQIMPTLIKQVVKLIPHAKIASMSLSRENIARQLANGEVDLAIDVARAVNAPLAHKTLLSDPFCVLIDRRQHAMHLEPSTKLTPTDYANAEHVAVSSRPIGRVMEDILLQQQGVNRHIKYRCQSYQTAAKIVIGSPLMLTLPRSIAEQFIHPDLHVCTMPFELPDIDTHLYWHMNTETDPAFVWLRAQIEMAIIAE
MGSDKIHHHHHHMKIGIDGRAAKWYRGTGIGTYTYQLISHINKLDEANDYTIFLPDSSNLNFKLKNNFSLKSINCTAKNNFWDQVNIPNIIKKDDTELYHVPQNGIGLPYNKNCRFTITLHDIIPYKMPETVGKKYLKIFEEEIPKIIPLCDGIITVSDFSKKDISEFFNYPESKIYVTYLSAEDIYRPIEKCISKDIIKNLYGIDKNYILYVGGFSPRKNISGIIHAFSKLKKTTKTNLKLIIAGKKGLSYPNYVDIAKKLNVSSDVIFPGFIPLEYMPFLYNAAEFLIYPSFYEGFGLPPLEAMACKVPVITSNITSLYEIFNGCALIVNPYDVEKIKDAMEIMYFDSSVRKIYSEKGFEFSKKLTWNSTAISTIKAYEKISKN
TTDPILFMLSLVQQCRLSPKLAYGVIAGFRFLPLLKDEVQLIQQAHKIRGGAAESGIINKISALKRYTIPLLASAIRKAERTALAMESKGFTGSRNRTYYRTLSVNRRD
GPGSMDAGSDEAVQKKMQEFLSKDAMEELRNIGDRTESRVRHGLLPRDYQQQQHQKDYQTANVTHEEEVNSYIQQRRTWRENVFLLRDFEYWRLRAEYYPYVRRGDEQNDNFFIRGIACHPRLSDYPMCRKPIQDYFVCRDKNKILQLFNLCAPMKEQFCACINEVFVKNHERGDKKFNAQRNEYFEEQRNRRLSKMMAHVEDSMEKRKKLQD
MDVSFEFEHYQVRLIKSSDAVTIANYFMRNRHHLAPWEPKRSHAFFTPEGWKQRLLQLVELHKHNLAFYFVVVDKNEHKIIGTVSYSNITRFPFHAGHVGYSLDSEYQGKGIMRRAVNVTIDWMFKAQNLHRIMAAYIPRNEKSAKVLAALGFVKEGEAKKYLYINGAWEDHILTSKINDDWKPE

Source: the DeepSol protein solubility set
